Assay [1] concerns the target IL-2R βγ heterodimer on human cells (NK92 cells, NK and T cells of PBMC) (human) (UniProt P14784). Nature of the assay: cell-based or functional assay.
In assay [2] the target is murine IL-2R α-subunit, recombinant monomeric (murine) (UniProt P01590). Nature of the assay: SPR, against the human IL-2R α-subunit as reference.
Assay [3] addresses murine IL-2R βγ heterodimer (β knob γ hole Fc fusion) (murine) (UniProt P16297). Nature of the assay: SPR, against the human IL-2R βγ heterodimer as reference.

Sequence of IL-2R βγ heterodimer on human cells (NK92 cells, NK and T cells of PBMC) (human) (P14784 27-551, chain 1 of 2): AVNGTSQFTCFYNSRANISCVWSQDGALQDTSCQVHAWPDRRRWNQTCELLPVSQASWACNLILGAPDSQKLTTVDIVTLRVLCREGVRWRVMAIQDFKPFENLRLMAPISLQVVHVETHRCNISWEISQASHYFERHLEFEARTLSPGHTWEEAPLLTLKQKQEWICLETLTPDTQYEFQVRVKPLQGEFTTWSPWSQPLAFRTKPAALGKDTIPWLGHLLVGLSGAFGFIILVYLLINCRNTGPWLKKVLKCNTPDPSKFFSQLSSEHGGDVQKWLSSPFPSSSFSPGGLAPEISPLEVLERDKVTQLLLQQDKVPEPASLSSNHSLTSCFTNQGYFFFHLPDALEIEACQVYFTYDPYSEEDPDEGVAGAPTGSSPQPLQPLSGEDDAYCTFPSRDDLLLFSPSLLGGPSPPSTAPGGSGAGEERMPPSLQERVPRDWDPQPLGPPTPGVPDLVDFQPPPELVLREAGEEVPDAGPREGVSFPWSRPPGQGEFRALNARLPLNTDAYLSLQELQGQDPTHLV
Sequence of IL-2R βγ heterodimer on human cells (NK92 cells, NK and T cells of PBMC) (human) (P31785 23-369, chain 2 of 2, further chain): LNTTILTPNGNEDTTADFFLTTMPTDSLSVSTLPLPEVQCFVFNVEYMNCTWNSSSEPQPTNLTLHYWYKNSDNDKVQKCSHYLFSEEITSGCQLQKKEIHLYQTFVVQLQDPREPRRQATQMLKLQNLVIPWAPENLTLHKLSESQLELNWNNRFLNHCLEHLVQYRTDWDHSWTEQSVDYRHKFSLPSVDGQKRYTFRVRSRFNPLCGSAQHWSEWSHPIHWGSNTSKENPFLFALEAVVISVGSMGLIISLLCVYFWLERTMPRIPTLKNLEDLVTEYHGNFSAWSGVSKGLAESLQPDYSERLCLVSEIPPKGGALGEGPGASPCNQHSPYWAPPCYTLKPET
Sequence of murine IL-2R βγ heterodimer (β knob γ hole Fc fusion) (murine) (P16297 27-240, chain 1 of 2): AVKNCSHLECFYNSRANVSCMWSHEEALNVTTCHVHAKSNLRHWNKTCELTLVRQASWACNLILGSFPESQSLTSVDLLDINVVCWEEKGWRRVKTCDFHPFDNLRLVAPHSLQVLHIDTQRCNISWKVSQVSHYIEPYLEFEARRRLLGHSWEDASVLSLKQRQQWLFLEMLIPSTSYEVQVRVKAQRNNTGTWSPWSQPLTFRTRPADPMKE
Sequence of murine IL-2R βγ heterodimer (β knob γ hole Fc fusion) (murine) (P34902 23-263, chain 2 of 2, further chain): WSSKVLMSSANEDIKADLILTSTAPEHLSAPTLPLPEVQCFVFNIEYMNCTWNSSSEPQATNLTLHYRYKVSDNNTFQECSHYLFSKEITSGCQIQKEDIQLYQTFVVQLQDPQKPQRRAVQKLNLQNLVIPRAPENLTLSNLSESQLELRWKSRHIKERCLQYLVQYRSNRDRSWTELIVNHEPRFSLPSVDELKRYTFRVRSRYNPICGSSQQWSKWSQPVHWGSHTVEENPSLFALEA
Sequence of murine IL-2R α-subunit, recombinant monomeric (murine) (P01590 22-236 limits assumed): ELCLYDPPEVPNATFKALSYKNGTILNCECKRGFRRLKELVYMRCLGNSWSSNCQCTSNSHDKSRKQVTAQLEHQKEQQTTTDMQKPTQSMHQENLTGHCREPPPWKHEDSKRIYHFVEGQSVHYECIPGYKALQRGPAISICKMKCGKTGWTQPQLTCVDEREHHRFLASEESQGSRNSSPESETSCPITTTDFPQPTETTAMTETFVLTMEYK

With “Proleukin (Novartis/Chiron), commercially available wild-type IL-2 (from UniProt P60568 22-153) (ligand)”, in assay [1], the EC50 of IFN-γ release by NK92 cells is 4.1 nM; the EC50 of STAT5 phosphorylation, CD8+ T cells was 1.07 nM; the EC50 of STAT5 phosphorylation, NK cells was determined as 0.222 nM.

As for human IL-2, the fold lower affinity than for the human receptor in assay [2] and in assay [3] was 10 fold each time.

Source of the values: US20190322765A1.
